Reference: patent US20080267971A1 (published 2008)
Values belong to the binder of their own block, whether it stands above or below them.

What was measured:
human Angiopoietin-2 [1] = biological target: T1, human Angiopoietin-2 (human, UniProt O15123 19-496); experiment: Biacore; kd held constant (*); kd held constant in the fit, not measured
T1 construct: Mostly bought recombinant protein (R&D Systems 623-AM/CF, 623-AN; biotinylated BT623) or supernatant of transfected 293F cells; also called Ang-2; rhAng-2
T1 sequence: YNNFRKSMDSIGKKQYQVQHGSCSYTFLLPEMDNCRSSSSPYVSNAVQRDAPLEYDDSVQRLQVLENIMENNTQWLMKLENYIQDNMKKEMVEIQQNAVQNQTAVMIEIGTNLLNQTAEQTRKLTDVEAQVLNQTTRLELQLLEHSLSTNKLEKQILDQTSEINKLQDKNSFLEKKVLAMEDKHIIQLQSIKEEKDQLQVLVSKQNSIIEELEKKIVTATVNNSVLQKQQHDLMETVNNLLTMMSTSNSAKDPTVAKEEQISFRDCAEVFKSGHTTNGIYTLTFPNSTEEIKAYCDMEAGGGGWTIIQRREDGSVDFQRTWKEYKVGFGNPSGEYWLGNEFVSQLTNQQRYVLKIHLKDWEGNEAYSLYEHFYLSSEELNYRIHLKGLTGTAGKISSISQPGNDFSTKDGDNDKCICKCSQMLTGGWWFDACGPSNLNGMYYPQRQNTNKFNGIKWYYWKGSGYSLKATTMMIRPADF
Method: The label-free surface plasmon resonance (SPR), or Biacore, was utilized to measure the antibody affinity to the antigen. For this purpose, a high-density goat anti-human antibody surface over a CM5 Biacore chip was prepared using routine amine coupling. All the purified mAbs were diluted to approximately 8 μg/ml in HBS-P running buffer containing 100 μg/ml BSA and 10 mg/mL carboxymethyldextran. Each mAb was captured on a separate surface using a 42-second contact time, and a 5-minute wash for stabilization of the mAb baseline.
Data were fit globally to a 1:1 interaction model to determine the binding kinetics.

human Angiopoietin-2 [2] = biological target: T1, human Angiopoietin-2; experiment: high resolution Biacore, mAb immobilized, 2nd experiment
Method: (§1) The mAb was then immobilized on flow cells 1-3 (CM5 Biacore chip) using routine amine coupling, leaving flow cell 4 as the reference flow cell.
(§2) The antibody surfaces were regenerated with a 6-second pulse of 15 mM NaOH after each injection cycle.
(§3) The sample injections alternated with three blank injection cycles. Each surface was regenerated with a 6-second pulse of 15 mM NaOH after each long off-rate injection cycle.

human Angiopoietin-2 [3] = biological target: T1, human Angiopoietin-2; experiment: high resolution Biacore, 2nd experiment; kd held constant (*)
Method: as §1, §2, §3

human Angiopoietin-2 [4] = biological target: T1, human Angiopoietin-2; experiment: competition ELISA: binding of recombinant human Ang-2 to coated human Tie2/Fc, mAb 3.19.3 titrated, bound Ang-2 detected with polyclonal anti-Ang-2
Method: (§4) For this purpose, an ELISA plate was coated with 4 μg/ml of hTie2/Fc (R&D Systems, Inc.) at 100 μl/well, and the wells were blocked as routine at 4° C. overnight.
(§5) Each concentration of the mAb was tested in triplicate. […] OD650 was determined 30 min after the HRP substrate was added.

mouse Angiopoietin-2 = biological target: T2, mouse Angiopoietin-2 (mouse, UniProt O35608 19-496); experiment: competition ELISA: binding of mouse Ang-2 (culture supernatant) to coated human Tie2/Fc, mAb 3.19.3 titrated, bound Ang-2 detected with polyclonal anti-Ang-2
T2 construct: Used as conditioned medium of transfectants; also called mAng-2; mouse Ang-2
T2 sequence: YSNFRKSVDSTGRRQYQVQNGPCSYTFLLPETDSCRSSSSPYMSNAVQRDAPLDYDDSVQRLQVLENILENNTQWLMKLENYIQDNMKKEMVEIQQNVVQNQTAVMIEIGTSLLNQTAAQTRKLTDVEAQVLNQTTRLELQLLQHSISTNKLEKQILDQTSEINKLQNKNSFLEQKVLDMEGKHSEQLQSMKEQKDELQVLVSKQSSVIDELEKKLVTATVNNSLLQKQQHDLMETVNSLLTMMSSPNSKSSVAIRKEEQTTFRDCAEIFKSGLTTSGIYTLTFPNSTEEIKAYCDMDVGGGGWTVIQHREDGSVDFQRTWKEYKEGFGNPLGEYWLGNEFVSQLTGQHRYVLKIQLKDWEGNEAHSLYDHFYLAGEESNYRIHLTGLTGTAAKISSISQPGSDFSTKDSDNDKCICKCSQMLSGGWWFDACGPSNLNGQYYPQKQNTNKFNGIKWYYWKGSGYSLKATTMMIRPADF
Method: as §4, §5

human Angiopoietin-1 = biological target: T3, human Angiopoietin-1 (human, UniProt Q15389 20-498, limits assumed); experiment: Biacore, mAb captured
T3 construct: Bought recombinant protein (R&D Systems 293-AN-025/CF) or supernatant of transfected 293F cells; also called Ang-1; recombinant Ang-1
T3 sequence: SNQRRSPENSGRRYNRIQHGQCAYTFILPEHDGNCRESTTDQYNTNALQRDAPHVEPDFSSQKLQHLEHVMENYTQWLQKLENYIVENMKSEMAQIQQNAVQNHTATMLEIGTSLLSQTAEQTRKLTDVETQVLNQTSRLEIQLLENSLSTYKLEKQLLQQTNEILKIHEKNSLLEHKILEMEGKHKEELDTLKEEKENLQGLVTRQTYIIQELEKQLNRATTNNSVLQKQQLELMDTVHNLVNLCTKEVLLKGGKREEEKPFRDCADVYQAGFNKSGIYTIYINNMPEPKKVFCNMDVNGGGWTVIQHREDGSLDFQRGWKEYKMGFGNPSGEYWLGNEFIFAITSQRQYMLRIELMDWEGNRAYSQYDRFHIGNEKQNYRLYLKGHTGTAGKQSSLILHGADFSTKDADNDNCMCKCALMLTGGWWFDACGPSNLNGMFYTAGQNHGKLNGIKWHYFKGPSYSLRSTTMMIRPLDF

- koff (human Angiopoietin-2 [1]): ≤ 1e-05 s⁻¹
B1: mAb 5.52.1 (antibody, V domains shown)
VH: QVQLVESGGGVVQPGRSLRLSCAASGFTFSSYGMHWVRQAPGKGLEWVAVRWYDESNKYYADSVKGRFTISRDNSKNTLYLQMNSLRAEDTAVYYCARDPFETGTTFDYWGQGTLVTVSS
VL: DIQMTQSPSSVSASVGDRVTITCRASQGISSWLAWYQQKPGKAPKLLIYAVSSLESGVPSRFSGSGSGTDFTLTISSLQPEDFATYYCQQALTFGGGTKVEIKR
notes: Human hybridoma IgG (XenoMouse); the line 5.52 has entries of its own (347, 349; light chain L2) that differ from the clone 5.52.1 (L5); also called x5.52

- Kd (human Angiopoietin-2 [2]): 5.6 pM
- kon (human Angiopoietin-2 [2]): 178000 M⁻¹ s⁻¹
- koff (human Angiopoietin-2 [3]): ~1e-06 s⁻¹
- IC50 (read off the curve) (human Angiopoietin-2 [4]): ~0.8 µg/mL
- IC50 (read off the curve) (mouse Angiopoietin-2): ~2 µg/mL
B2: mAb 3.19.3 (antibody, V domains shown)
VH: QVQLVESGGGVVQPGRSLRLSCAASGFTFTNYGMHWGRQAPGKGLEWVAVISHDGNNKYYVDSVKGRFTISRDNSKNTLYLQMNSLRAEDTAVYYCAREGIDFWSGLNWFDPWGQGTLVTVSS
VL: EIVLTQSPGTLSLSPGERATLSCRASQSITGSYLAWYQQKPGQAPRLLICGASSWATGIPDRFSGSGSGTDFTLTISRLEPEDFAVYYCQQYSSSPITFGQGTRLEIKR
notes: Human hybridoma IgG (XenoMouse); also called x3.19

- binding result (human Angiopoietin-1): no binding (tested: 87.4 nM Ang-1)
B3: mAb 3.3.2 (antibody, V domains shown)
VH: EVQLVESGGGLVQPGGSLRLSCAVSGFTFSSYWMSWVRQAPGKGLEWVANIKQDGSEKYYVDSVKGRFTISRDNAKNSLYLQMNSLRAEDTAVYYCARDQGIAVAGPFDYWGQGTLVTVSS
VL: EIVMTQSPATLSVSPGERATLSCRASQTVSSDLAWYQQKPGQAPRLLIYGASIRATGIPARFSGSGSGTEFTLTISSLQSEDFAVYSCQQYYNWWTFGQGTKVEIKR
notes: Human hybridoma IgG (XenoMouse); also called 3.3.1; x3.3
